Results reported in article doi:10.1101/2020.12.31.425005 (bioRxiv, 2020).

Biological target: the molecule itself
Assay: crystal structure

B1: Haemophilus ducreyi I51M-L72M-YhcB cytosolic region, residues 31-128 (domain or fragment)
chain: MKGNIQQQIQLKSELASAEAKMEEQKQQLERHFEQSANLLENMAEDYKKLYTHFAQNSEQLLPESNQVEFFKRLKNHANGDEDNQPRDYSDGSSGLLKS
modifications: selenomethionine-labeled (Met-51, Met-72)
Q: For B1, which “stoichiometry N” value is on record?
A: Its value is 4.
